Data published in patent US8367815B2, “Modular polynucleotides for ligand-controlled regulatory systems” (California Institute of Technology, priority 2007, dated 2013).
Where “and” joins values, the source holds several entries; their conditions need not be identical. Equal values may be shown once. Read-outs that look alike come from different tables or passages of the source.

Assays:
EGFP = conditions: for Basal expression levels (%): GFP(%): median green fluorescence of transfected vs untransfected cells in same well, without ligand, HEK293T tTA-d2EGFP; for η (dynamic range): ratio of GFP(%) at high (3 mM) and low (1 μM) theophylline concentrations
Method: The functionality of shRNA switches was assessed in mammalian cell culture. Applicants transiently transfected plasmids harboring S1 and various switch controls transcribed from a U6 promoter into HEK293T cells stably expressing EGFP (Abbas-Terki et al, 2002).
In this example, Applicants systematically evaluated the tuning capabilities of shRNA switches with the aid of a mathematical model relating ligand concentration and target gene expression levels. Standard model parameters were incorporated to represent each chemical step from the proposed mechanism (Example 7). […] These assumptions yield the following relationship between relative expression levels of the target gene (f; output) and exogenous ligand concentration (L; input): f=1−e·fshRNA[1+KComp(1+KApt·L)]^−h, (1)
The power of this model lies in the ability to calculate realistic parameter values from a minimal set of experiments: fshRNA can be found in one experiment by measuring the relative knockdown of the target gene induced by an shRNA that contributes the shRNA stem, e can be calculated from basal expression levels from a few shRNA switches that strongly prefer the active conformation, and h can be calculated by generating a ligand response curve with one shRNA switch—as long as administration of the highest ligand concentration results in negligible knockdown of the target gene. The remaining model parameters, KComp and KApt, can be found from the same response curve used to calculate […], since varying KApt only changes the EC50 while varying KComp changes both EC50 and basal expression levels. A summary of the model parameters and how values are experimentally obtained are included in Table III below.
To investigate the validity of the model, Applicants experimentally determined model parameter values as described above: fshRNA was equated to the knockdown achieved with the original shRNA targeting EGFP (sh); e was calculated from the average basal expression levels produced by shRNA switches S5, S7, S9, and S10; and KComp, KApt, and h were determined by a model fit of the theophylline response curve for S1. […] The EC50 is related to KApt and KComp according to the following: EC50=(1+KComp^−1)KApt^−1, (4)
Cell culture and transfection. All cells were maintained at 37° C. in a 5% CO2-humidified incubator. HEK293T, HEK293, HeLa, and HEK293T tTA-d2EGFP cells were maintained in minimal essential medium (MEM) alpha media (Invitrogen) supplemented with 10% fetal bovine serum (FBS) (Invitrogen), whereas MDA-MB-231 cells were maintained in RMPI 1640 with glutamine (Invitrogen) supplemented with 10% FBS. Cells were transfected one day after seeding using Fugene 6 (Roche) according to the manufacturer's instructions, followed by the immediate addition of ligand. HEK293T tTA-d2EGFP were transfected with shRNA vector (250 ng), whereas cells lacking endogenous GFP were cotransfected with shRNA vector (250 ng) and the pcDNA3.1(+) (Invitrogen) harboring the d2EGFP gene (25 ng) (Clontech). One day post-transfection the media and ligand were replaced. Transfected cells were collected three days post-transfection for flow cytometry analysis.
Cell fluorescence analysis. Three days post-transfection, cells were trypsinized and subjected to flow cytometry analysis using the Cell Lab Quanta SC MPL (Beckman Coulter). Cells were first gated twice for (1) viability as assessed by electronic volume (EV) versus side scatter (SS) and (2) green fluorescence above autofluorescence to remove a nonfluorescent subpopulation.

La protein = assay: qRT-PCR of La protein mRNA from transfected HEK293T tTA-d2EGFP cells; type: cell-based
Method: (A) qRT-PCR of La protein mRNA from HEK293T tTA-d2EGFP cells transfected in the presence (▪) or absence (□) of 1.5 mM theophylline. […] Error bars represent quadruplicate qRT-PCR measurements. (B) Curve fit to extrapolate empirical parameters C1-3. Dashed line marks knockdown achieved by base shRNA. (C) Model predictions for dynamic range using empirical parameter values for the GFP experiments along with fshRNA=0.6 and e=0.72 (gray curve) and extrapolated values from the La experiments (black curve). (D) Relationship between dynamic range (η) and the free energy difference. The dashed line represents the apparent increase in La mRNA levels upon theophylline addition observed for the base shRNA (shL).
To examine the generality of shRNA switch design and functionality, Applicants designed a set of shRNA switches targeting the endogenous La protein. Following selection of an shRNA sequence that yields moderate knockdown of La as ascertained by qRT-PCR, various switching strand sequences covering a range of ΔG values were combined with the smaller theophylline aptamer to yield six shRNA switches (L1-6). […] As observed for the GFP-targeting shRNA switches, use of the stems method provided a suitable correlation between basal levels and ΔGmethod. Supplying the model with fit values for C1-3 yielded a predicted dynamic range trend that closely matched the experimental data. […]

[1] = In-line probing of S4t under varying theophylline concentrations; type: binding
Description: Individual bands from the in-line gel (FIG. 1B) were quantified and normalized to an adjacent constant region to remove bias from inconsistent well loading. C56 bands were normalized to U47 bands, while C74 bands were normalized to U100-G102 bands.
Applicants designed an initial shRNA switch (S1) to target EGFP and respond to theophylline by incorporating an EGFP-targeting guide strand and the theophylline aptamer (Zimmermann et al, 2000) into our switch platform (FIG. 1A). Applicants used in-line probing (Soukup and Breaker, 1999, incorporated herein by reference, and briefly described below) to assess the structural characteristics of a T7-transcribed variant similar to S1 (S4t; FIG. 1B). In-line probing provides structural information from the ligand dependence of spontaneous RNA cleavage. See Materials and Methods section below.
In-line probing. In-line probing was conducted as described previously (Soukup et al, 1999). After heating at 70° C. for 2 min followed by slow cooling to room temperature, 5′ radiolabeled RNAs ([…]) were incubated for 40 hours at 25° C. in varying amounts of theophylline with 50 mM Tris-HCl pH 8.5, 20 mM MgCl2. Reactions were terminated by adding an equal volume of loading buffer (10 M urea, 1.5 mM EDTA). The alkaline hydrolysis ladder was generated by incubating RNA in 50 mM NaHCO3/Na2CO3 pH 9.2, 1 mM EDTA for 6 min at 95° C. The G-specific cleavage ladder was generated by incubating RNA in 1 U RNase T1 (Ambion) with 20 mM sodium citrate pH 5.0, 1 mM EDTA, 7 M urea, and 3 μg yeast RNA for 25 min at 25° C. RNAs were resolved on an 8% denaturing polyacrylamide gel, dried for 90 min at 70° C., then visualized on an FX phosphorimager (BioRAD). Band quantification was performed using the Quantity One software package (BioRAD). To account for well loading variability, quantified band intensities were normalized to an adjacent band of similar intensity showing negligible theophylline dependence.

## S10: EGFP shRNA switch, larger theophylline aptamer, combined switching strand changes from S4; Table I (pCS808) (CTCGATACCAGCATCGACTCTTCGATGCCCTTGGCAGCGAGCTGACCCTGACTAGA)
EGFP
  Basal expression levels (%): 29.4%
  η (dynamic range): 3.60

B1: shL: base shRNA targeting endogenous La protein; sequence in Table I (pCS1457) (nucleic acid)
chain: GGATCCGGCTTCCCAACGATGATGCAACTCCTCGAGTCTAGAGGAGTTGCATCAGTTGGGAAGCCTTTTTTGGAAGCTT
modifications: the letters are possibly those of the target site
La protein; 1.5 mM theophylline
  response of La mRNA levels to theophylline: not observed
La protein; relative knockdown of La by base shRNA
  fshRNA (La experiments): 0.6

B2: S4t: T7-transcribed variant similar to S1, used for in-line probing; SEQ ID NO: 51 (nucleic acid)
chain: GGGUCAGAUGAACUUCAGGGUCAGCUCGAGAUACCAGCAUCGACUCUUCGAUGCCCUUGGCAGCUCGGGCUGACCCUGCUAGAGCUGACCCUGAAUCAUCUGACCCUU
modifications: RNA, phosphodiester; further chemistry not fully specified
[1]; equation (4) with ratio of apparent KD to KD of aptamer alone
  KComp solved from in-line assay results: 0.06
[1]; theophylline
  ratio of the apparent KD to the KD of the aptamer alone: ~17
[1]; theophylline, Michaelis-Menten fit, C56 bands normalized to U47, read-out: KD from in-line cleavage at C56
  Kd: 3.6 µM
[1]; theophylline, Michaelis-Menten fit, C74 bands normalized to U100-G102, read-out: KD from in-line cleavage at C74
  Kd: 6.8 µM
[1]; theophylline, from quantifying cleavage products at two positions, read-out: apparent dissociation constant (KD)
  Kd: ~5 µM and 5 µM

B3: S1: initial shRNA switch targeting EGFP, theophylline aptamer; Table I (pCS630), SEQ ID NO: 48 (nucleic acid)
chain: GGUGCAGAUGAACUUCAGGGUCAGCUCGAGAUACCAGCAUCGACUCUUCGAUGCCCUUGGCAGCUCGGGCUGACCCUGACUAGAGCUGACCCUGAAUCAUCUGCACCUU
EGFP
  Basal expression levels (%): 33.8%
  η (dynamic range): 2.71
EGFP; compared to original shRNA (sh) and scrambled shRNA (neg), flow cytometry
  knockdown of EGFP: intermediate knockdown
EGFP; from average basal expression levels of switches that highly favor the active conformation
  e (RNAi processing efficiency): 0.85
EGFP; in the presence of theophylline
  theophylline dependence of GFP levels: increased in a dose-dependent manner
EGFP; least-squares model fit of theophylline response curve
  KComp (partitioning coefficient between active and inactive conformations): 0.17
EGFP; model fit of theophylline response curve
  h (Hill coefficient): 1.33
EGFP; model fit of theophylline response curve in cells
  KApt (association constant between ligand and formed aptamer): 0.016 µM⁻¹
EGFP; read-out: effective concentration to achieve 50% activity (EC50), theophylline concentration, GFP levels, HEK293T cells stably expressing EGFP
  EC50: ~300 µM
EGFP; set by separate transfection with original shRNA targeting EGFP (sh), parameter of the S1 transfer function
  fshRNA (relative knockdown by original shRNA): 0.94
